# Laboratory results: patent US20220249563A1 (LEGEND BIOTECH IRELAND, published 2022)
# T1: extracellular domain of human DLL3 protein (aa27-466) having an N-terminal FLAG tag (AdipoGen, AG-40B-0151) (human, UniProt Q9NYJ7 27-466)
# T1 construct: range 27-466; also called DLL3 ECD protein
# T1 sequence (looked up): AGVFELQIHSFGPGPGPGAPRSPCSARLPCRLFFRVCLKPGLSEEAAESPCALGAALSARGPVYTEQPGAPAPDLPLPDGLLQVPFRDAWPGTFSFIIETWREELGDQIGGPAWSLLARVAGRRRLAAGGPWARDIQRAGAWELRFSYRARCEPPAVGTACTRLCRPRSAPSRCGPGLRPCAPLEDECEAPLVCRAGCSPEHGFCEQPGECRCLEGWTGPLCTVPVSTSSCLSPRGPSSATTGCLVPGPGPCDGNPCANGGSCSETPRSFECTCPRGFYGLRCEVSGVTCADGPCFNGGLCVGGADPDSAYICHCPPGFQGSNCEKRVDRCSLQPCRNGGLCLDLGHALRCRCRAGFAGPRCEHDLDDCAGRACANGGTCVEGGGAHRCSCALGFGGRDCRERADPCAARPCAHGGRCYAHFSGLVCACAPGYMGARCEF
# B1: AS69443 HCAb (Fc fusion, not shown: a dimerising Fc or GST)
# chain: EVQLAESGGGSVQAGGSLRLSCSASGFTFDDSDMAWYRQAPGDGCDLVSTISSDGSTYYADSVKGRFTISQDNAKNTVYLQMHSLKPEDTAVYYCAADFLTGFYYSDSPHPAPCSASDFGYWGQGTQVTVSS
# B2: AS64617 HCAb (Fc fusion, not shown: a dimerising Fc or GST)
# chain: QVQLVESGGGSVQAGGSLRLSCAASGYTDRCSMAWYRQAPGKERELVSRISTSGFTNYAASVKGRFTISQDNAKNTVYLQMNSLNPGDTGMYYCAIIVGRTCSLNYWGNGILVTVSS
# B3: AS64047 HCAb (Fc fusion, not shown: a dimerising Fc or GST)
# chain: QVHLVESGGGSVQAGGSLRLSCAASQYVYRWDLMGWFRQAPGKEREAVAAVYTGDGITYYADSVKGRFSISQDNAKNTVYLQMNSLKPEDTGMYFCAAGFVSGGRWNQSYRYKYWGQGTQVTVSS
# B4: AS64052 HCAb (Fc fusion, not shown: a dimerising Fc or GST)
# chain: QVHLMESGGGSVQAGGSLRLSCAASGYTYRSNFMGWFRQAPGKEREGIATIHSGVATTYYADSVKGRFTISQDNAKNTVYLQMNSLKPEDTAMYYCAAGGPPANADRWYPLRPPGYNYWGQGTQVTVSS
# B5: AS63931 HCAb (Fc fusion, not shown: a dimerising Fc or GST)
# chain: EVQLAESGGGSVQAGGSLRLSCAGSFSGYGVSTMAWFRQAPGKEREGVAAITVGSGNTYYADSVTGRFTISRDNAKRTVYLQMNSLKPEDTAMYYCAAGWLSGGSWHVPGRYNYWGQGTQVTVSS
# B6: AS64062 HCAb (Fc fusion, not shown: a dimerising Fc or GST)
# chain: QVRLVESGGGSVQVGGSLRLSCAASRSPYSSSRCMGWFRQAPGKEREGVAALYTGGGSTSYADSVKGRFTISQDNAKNTVYLQMNSLKPEDTAMYYCAAVVPRGGSCRLDERGYYHWGQGTQVTVSS
# B7: AS56704 scFv (scFv, V domains shown)
# VH: EVQLVESGGGLVQPGGSLRLSCAASGFNISSSYMHWVRQAPGKGLEWVAYIYPSYGYTSYADSVKGRFTISADTSKNTAYLQMNSLRAEDTAVYYCARGGYYYHGMDYWGQGTLVTVSS
# VL: DIQMTQSPSSLSASVGDRVTITCRASQSVSSAVAWYQQKPGKAPKLLIYSASSLYSGVPSRFSGSRSGTDFTLTISSLQPEDFATYYCQQASWSPITFGQGTKVEIK
# notes: also called A556704
# B8: AS56788 scFv (scFv, V domains shown)
# VH: EVQLVESGGGLVQPGGSLRLSCAASGFNISSYSMHWVRQAPGKGLEWVAYISSYYGYTYYADSVKGRFTISADTSKNTAYLQMNSLRAEDTAVYYCARYSYYYGMDYWGQGTLVTVSS
# VL: DIQMTQSPSSLSASVGDRVTITCRASQSVSSAVAWYQQKPGKAPKLLIYSASSLYSGVPSRFSGSRSGTDFTLTISSLQPEDFATYYCQQHYAPSLITFGQGTKVEIK
# notes: also called A556788
# Target: T1, extracellular domain of human DLL3 …
# Test: SPR (Biacore), captured antibody, human DLL3 as analyte
# From the text: The camel and humanized sdAb sequences were fused with human IgG1 hinge and Fc, resulting the chimeric and humanized HCAb sequences. The DNAs encoding these HCAbs were synthesized and inserted into pTT5 vector. HCAb expression plasmids were used to transfect HEK293 cells. Crude HCAb proteins secreted to the medium were subjected to SPR affinity measurement as follows: briefly, capturing antibody anti-human Fc pAb (GE healthcare) was immobilized on a Biacore™ CM5 chip to approximately 6,000 RU using EDC-activated amine coupling chemistry. HCAb of interest was captured for 300 seconds onto the sensorchip surface. Human DLL3 (AdipoGen, AG-40B-0151) was flowed over the sensorchip surface at a series of increasing concentrations. Association and dissociation phases were monitored. Captured antibody and antigen were removed between cycles using 10 mM Glycine-HCl, pH 2.0 buffer in order to ensure a fresh binding surface for the antigen. The resulting sensorgrams were fit globally using a 1:1 binding model in order to calculate on- and off-rates (ka and kd, respectively), as well as affinities (KD).
Binder,Kd [nM],koff [s⁻¹],kon [M⁻¹ s⁻¹]
B1,0.96,9e-05,94000
B2,20,0.0038,190000
B3,6.7,0.00096,140000
B4,4,0.00041,100000
B5,47,0.17,3.6e+06
B6,6.9,0.00071,100000

# Target: T1, extracellular domain of human DLL3 …
# Test: SPR (Biacore), same procedure as for the HCAbs, human DLL3 as analyte
Binder,koff [s⁻¹],kon [M⁻¹ s⁻¹],Kd [nM]
B7,0.000559,66000,–
B8,0.003,130000,23
